In patent publication US20250019439A1 (Adimab, published 2025):

Experiments:
ADI-26913 IgG [1] = molecular target: T1, ADI-26913 IgG; test: BLI; tip anti-CD3 IgG, solution ADI-34145 Fab
T1 construct: anti-CD3 IgG
Experimental: (§1) ForteBio affinity measurements were performed generally as previously described (Estep et al., MAbs. 2013 5(2):270-8). Briefly, ForteBio affinity measurements were performed by loading antibody IgG or Fabs on-line onto AHC sensors. Sensors were equilibrated off-line in assay buffer for 30 minutes and then monitored on-line for 60 seconds for baseline establishment. For avid binding measurement, sensors with loaded antibodies were exposed to IgG or Fab solutions for 3 minutes, afterwards they were transferred to assay buffer for 3 minutes for off-rate measurement. Kinetics data were fit using a 1:1 binding model in the data analysis software provided by ForteBio to obtain equilibrium dissociation constant (KD=koff/kₒₙ) values. In each column, tip-immobilized antibodies are listed first and solution antibodies second.
(§2) CTL-19613 is an IgG1 antibody prepared with anti-CD3 variable domains corresponding with those of clone 12C described in United States Publication Number US 2010/0183615 (e.g., see paragraphs 469-479 and FIG. 25 thereof), which also make up the CD3 binding domain of the bispecific antibody pasotuxizumab. […] In each column, tip-immobilized antibodies are listed first and solution antibodies second.

ADI-26916 IgG [2] = molecular target: T2, ADI-26916 IgG; test: BLI; tip anti-CD3 IgG, solution ADI-34145 Fab
T2 construct: anti-CD3 IgG
Experimental: as §1, §2

ADI-22523 IgG [3] = molecular target: T3, ADI-22523 IgG; test: BLI; tip anti-CD3 IgG, solution ADI-34145 Fab
T3 construct: anti-CD3 IgG
Experimental: as §1, §2

CTL-19672 IgG = molecular target: T4, CTL-19672 IgG; test: BLI; tip anti-CD3 IgG, solution ADI-34145 Fab
T4 construct: IgG1 with the anti-CD3 variable domains of clone 38E4v1
Experimental: as §1, §2

ADI-26920 IgG [4] = molecular target: T5, ADI-26920 IgG; test: BLI; tip anti-CD3 IgG, solution ADI-34145 Fab
T5 construct: anti-CD3 IgG
Experimental: as §1, §2

ADI-26906 IgG [5] = molecular target: T6, ADI-26906 IgG; test: BLI; tip anti-CD3 IgG, solution ADI-34145 Fab
T6 construct: anti-CD3 IgG
Experimental: as §1, §2

CTL-19613 IgG [6] = test: BLI; tip anti-CD3 IgG, solution ADI-34145 Fab
Experimental: as §1, §2

CTL-19672 anti-CD3 bsIgG = molecular target: T7, CTL-19672 anti-CD3 bsIgG (In the assay the two domains were one scFv (VL-VH orientation, linker not given). It replaced one Fab arm of an anti-HER2 IgG; S354C and Y349C mutations are stated for disulfide stabilization.); test: BLI; tip anti-CD3 bsIgG, solution ADI-34145 Fab
T7 construct: anti-HER2 IgG with one Fab arm replaced by the anti-CD3 scFv (printed 'Vx-VH', read as VL-VH); S354C and Y349C mutations; not shown: scFv linker between VL and VH; anti-HER2 heavy and light chains of the other arm; hinge and Fc (with S354C / Y349C)
Experimental: as §1
(§3) Additional analysis was conducted using bispecific antibody formats incorporating anti-CD3 antibody variable domains. Bispecific antibodies were prepared using standard IgG formats (bsIgG) with replacement of Fab arms with anti-CD3 scFvs in Vx-VH orientation and with S354C and Y349C mutations for disulfide stabilization. Antibodies used for Fab arm replacement were anti-HER2 IgG antibodies, with one Fab arm from each replaced by a scFv corresponding to a different anti-CD3 antibody. […] In each column, tip-immobilized antibodies are listed first and solution antibodies second. Anti-CD3 antibodies associated with incorporated scFvs are listed by antibody number.

ADI-26920 anti-CD3 bsIgG [7] = molecular target: T8, ADI-26920 anti-CD3 bsIgG; test: BLI; tip anti-CD3 bsIgG, solution ADI-34145 Fab
T8 construct: anti-HER2 IgG with one Fab arm replaced by the anti-CD3 scFv (printed 'Vx-VH', read as VL-VH); S354C and Y349C mutations; also called anti-CD3 bsIgG (ADI-26920 scFv); not shown: scFv linker; anti-HER2 Fab arm (heavy and light chain); hinge and Fc with S354C/Y349C
Experimental: as §1, §3

ADI-26913 anti-CD3 bsIgG [8] = molecular target: T9, ADI-26913 anti-CD3 bsIgG; test: BLI; tip anti-CD3 bsIgG, solution ADI-34145 Fab
T9 construct: anti-HER2 IgG with one Fab arm replaced by the anti-CD3 scFv (printed 'Vx-VH', read as VL-VH); S354C and Y349C mutations; also called anti-CD3 bsIgG (ADI-26913 scFv); not shown: scFv linker; anti-HER2 Fab arm (heavy and light chain); hinge and Fc with S354C/Y349C
Experimental: as §1, §3

ADI-26906 anti-CD3 bsIgG [9] = molecular target: T10, ADI-26906 anti-CD3 bsIgG; test: BLI; tip anti-CD3 bsIgG, solution ADI-34145 Fab
T10 construct: anti-HER2 IgG with one Fab arm replaced by the anti-CD3 scFv (printed 'Vx-VH', read as VL-VH); S354C and Y349C mutations; also called anti-CD3 bsIgG (ADI-26906 scFv); not shown: scFv linker; anti-HER2 Fab arm (heavy and light chain); hinge and Fc with S354C/Y349C
Experimental: as §1, §3

CTL-19613 anti-CD3 bsIgG [10] = molecular target: T11, CTL-19613 anti-CD3 bsIgG (In the assay the two domains were one scFv (VL-VH orientation, linker not given). It replaced one Fab arm of an anti-HER2 IgG; S354C and Y349C mutations are stated for disulfide stabilization.); test: BLI; tip anti-CD3 bsIgG, solution ADI-34145 Fab
T11 construct: anti-HER2 IgG with one Fab arm replaced by the anti-CD3 scFv (printed 'Vx-VH', read as VL-VH); S354C and Y349C mutations; also called anti-CD3 bsIgG (CTL-19613 scFv); not shown: scFv linker between VL and VH; anti-HER2 heavy and light chains of the other arm; hinge and Fc (with S354C / Y349C)
Experimental: as §1, §3

ADI-26921 IgG = molecular target: T12, ADI-26921 IgG; test: BLI; tip anti-CD3 IgG, solution ADI-34134 Fab
T12 construct: anti-CD3 IgG
Experimental: as §1, §2

ADI-26913 IgG [11] = molecular target: T1, ADI-26913 IgG; test: BLI; tip anti-CD3 IgG, solution ADI-34134 Fab
Experimental: as §1, §2

ADI-26928 IgG = molecular target: T13, ADI-26928 IgG; test: BLI; tip anti-CD3 IgG, solution ADI-34134 Fab
T13 construct: anti-CD3 IgG
Experimental: as §1, §2

ADI-26927 IgG = molecular target: T14, ADI-26927 IgG; test: BLI; tip anti-CD3 IgG, solution ADI-34134 Fab
T14 construct: anti-CD3 IgG
Experimental: as §1, §2

ADI-26916 IgG [12] = molecular target: T2, ADI-26916 IgG; test: BLI; tip anti-CD3 IgG, solution ADI-34134 Fab
Experimental: as §1, §2

ADI-22523 IgG [13] = molecular target: T3, ADI-22523 IgG; test: BLI; tip anti-CD3 IgG, solution ADI-34134 Fab
Experimental: as §1, §2

ADI-26941 IgG = molecular target: T15, ADI-26941 IgG; test: BLI; tip anti-CD3 IgG, solution ADI-34134 Fab
T15 construct: anti-CD3 IgG
Experimental: as §1, §2

ADI-26920 IgG [14] = molecular target: T5, ADI-26920 IgG; test: BLI; tip anti-CD3 IgG, solution ADI-34134 Fab
Experimental: as §1, §2

ADI-26906 IgG [15] = molecular target: T6, ADI-26906 IgG; test: BLI; tip anti-CD3 IgG, solution ADI-34134 Fab
Experimental: as §1, §2

CTL-19613 IgG [16] = test: BLI; tip anti-CD3 IgG, solution ADI-34134 Fab
Experimental: as §1, §2

ADI-26920 anti-CD3 bsIgG [17] = molecular target: T8, ADI-26920 anti-CD3 bsIgG; test: BLI; tip anti-CD3 bsIgG, solution ADI-34134 Fab
Experimental: as §1, §3

ADI-26921 anti-CD3 bsIgG = molecular target: T16, ADI-26921 anti-CD3 bsIgG; test: BLI; tip anti-CD3 bsIgG, solution ADI-34134 Fab
T16 construct: anti-HER2 IgG with one Fab arm replaced by the anti-CD3 scFv (printed 'Vx-VH', read as VL-VH); S354C and Y349C mutations; also called anti-CD3 bsIgG (ADI-26921 scFv); not shown: scFv linker; anti-HER2 Fab arm (heavy and light chain); hinge and Fc with S354C/Y349C
Experimental: as §1, §3

ADI-22523 anti-CD3 bsIgG = molecular target: T17, ADI-22523 anti-CD3 bsIgG (In the assayed molecule VL and VH are joined as one scFv (printed 'Vx-VH' orientation) by an undisclosed linker and fused to an Fc, paired with an anti-HER2 half-IgG. They are given here as two …); test: BLI; tip anti-CD3 bsIgG, solution ADI-34134 Fab
T17 construct: anti-HER2 IgG with one Fab arm replaced by the anti-CD3 scFv (printed 'Vx-VH', read as VL-VH); S354C and Y349C mutations; not shown: scFv linker between VL and VH; anti-HER2 heavy and light chains; hinge and Fc with S354C/Y349C
Experimental: as §1, §3

ADI-26913 anti-CD3 bsIgG [18] = molecular target: T9, ADI-26913 anti-CD3 bsIgG; test: BLI; tip anti-CD3 bsIgG, solution ADI-34134 Fab
Experimental: as §1, §3

ADI-26906 anti-CD3 bsIgG [19] = molecular target: T10, ADI-26906 anti-CD3 bsIgG; test: BLI; tip anti-CD3 bsIgG, solution ADI-34134 Fab
Experimental: as §1, §3

ADI-26928 anti-CD3 bsIgG = molecular target: T18, ADI-26928 anti-CD3 bsIgG; test: BLI; tip anti-CD3 bsIgG, solution ADI-34134 Fab
T18 construct: anti-HER2 IgG with one Fab arm replaced by the anti-CD3 scFv (printed 'Vx-VH', read as VL-VH); S354C and Y349C mutations; also called anti-CD3 bsIgG (ADI-26928 scFv); not shown: scFv linker; anti-HER2 Fab arm (heavy and light chain); hinge and Fc with S354C/Y349C
Experimental: as §1, §3

CTL-19613 anti-CD3 bsIgG [20] = molecular target: T11, CTL-19613 anti-CD3 bsIgG; test: BLI; tip anti-CD3 bsIgG, solution ADI-34134 Fab
Experimental: as §1, §3

ADI-26927 anti-CD3 bsIgG = molecular target: T19, ADI-26927 anti-CD3 bsIgG; test: BLI; tip anti-CD3 bsIgG, solution ADI-34134 Fab
T19 construct: anti-HER2 IgG with one Fab arm replaced by the anti-CD3 scFv (printed 'Vx-VH', read as VL-VH); S354C and Y349C mutations; also called anti-CD3 bsIgG (ADI-26927 scFv); not shown: scFv linker; anti-HER2 Fab arm (heavy and light chain); hinge and Fc with S354C/Y349C
Experimental: as §1, §3

T6 sequence (VH, as listed by the source limits assumed, chain 1 of 2): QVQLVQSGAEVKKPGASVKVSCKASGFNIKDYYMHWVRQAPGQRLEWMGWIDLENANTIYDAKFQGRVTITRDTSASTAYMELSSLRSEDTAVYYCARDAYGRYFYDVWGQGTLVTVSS
T6 sequence (VL, as listed by the source limits assumed, chain 2 of 2): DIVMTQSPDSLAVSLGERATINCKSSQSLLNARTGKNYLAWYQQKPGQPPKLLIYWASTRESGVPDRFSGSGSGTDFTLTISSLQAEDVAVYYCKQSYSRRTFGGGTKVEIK
T2 sequence (VH, as listed by the source, chain 1 of 2): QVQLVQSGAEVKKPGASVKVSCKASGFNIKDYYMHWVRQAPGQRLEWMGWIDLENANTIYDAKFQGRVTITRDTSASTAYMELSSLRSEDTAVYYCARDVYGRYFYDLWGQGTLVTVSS
T1 sequence (VH, as listed by the source limits assumed, chain 1 of 2): as the sequence (VH, as listed by the source, chain 1 of 2) above, with V100Q, L108V counted along it
T9 sequence (VH, as listed by the source limits assumed, chain 1 of 2): as the sequence (VH, as listed by the source, chain 1 of 2) above, with V100Q, L108V counted along it
T5 sequence (VH, as listed by the source limits assumed, chain 1 of 2): as the sequence (VH, as listed by the source, chain 1 of 2) above, with A97G, V100A, L108V counted along it
T5 sequence (VL, as listed by the source limits assumed, chain 2 of 2): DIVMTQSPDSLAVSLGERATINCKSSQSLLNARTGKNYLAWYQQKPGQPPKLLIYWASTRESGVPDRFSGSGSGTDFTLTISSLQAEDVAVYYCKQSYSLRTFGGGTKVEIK
T8 sequence (VH, as listed by the source limits assumed, chain 1 of 2): as the sequence (VH, as listed by the source, chain 1 of 2) above, with A97G, V100A, L108V counted along it
T3 sequence (VH, as listed by the source limits assumed, chain 1 of 2): as the sequence (VH, as listed by the source, chain 1 of 2) above, with A56G, A62P, V100G, L108V counted along it
T3 sequence (VL, as listed by the source limits assumed, chain 2 of 2): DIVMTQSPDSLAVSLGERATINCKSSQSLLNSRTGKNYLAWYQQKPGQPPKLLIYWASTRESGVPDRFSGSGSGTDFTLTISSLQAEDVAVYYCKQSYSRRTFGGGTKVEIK
T16 sequence (VH, as listed by the source limits assumed, chain 1 of 2): as the sequence (VH, as listed by the source, chain 1 of 2) above, with N55E, A56G, V100A, L108V counted along it
T12 sequence (VH, as listed by the source limits assumed, chain 1 of 2): as the sequence (VH, as listed by the source, chain 1 of 2) above, with N55E, A56G, V100A, L108V counted along it
T15 sequence (VH, as listed by the source limits assumed, chain 1 of 2): as the sequence (VH, as listed by the source, chain 1 of 2) above, with N55E, A56G, V100Q, L108V counted along it
T15 sequence (VL, as listed by the source limits assumed, chain 2 of 2): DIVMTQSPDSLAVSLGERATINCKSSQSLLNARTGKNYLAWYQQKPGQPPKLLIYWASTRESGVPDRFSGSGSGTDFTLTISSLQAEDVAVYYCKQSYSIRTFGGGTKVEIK
T7 sequence (VH, as listed by the source limits assumed, chain 1 of 2): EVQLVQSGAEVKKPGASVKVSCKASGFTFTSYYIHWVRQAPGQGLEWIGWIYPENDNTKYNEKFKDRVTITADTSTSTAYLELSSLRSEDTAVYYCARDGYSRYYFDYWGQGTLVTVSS
T7 sequence (VL, as listed by the source limits assumed, chain 2 of 2): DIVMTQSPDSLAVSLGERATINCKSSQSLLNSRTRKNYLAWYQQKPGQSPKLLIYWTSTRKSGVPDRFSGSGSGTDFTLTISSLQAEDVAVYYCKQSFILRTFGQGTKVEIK
T19 sequence (VH, as listed by the source limits assumed, chain 1 of 2): as the sequence (VH, as listed by the source, chain 1 of 2) above, with N55E, A56G, V100R, R103A, L108V counted along it
T14 sequence (VH, as listed by the source limits assumed, chain 1 of 2): as the sequence (VH, as listed by the source, chain 1 of 2) above, with N55E, A56G, V100R, R103A, L108V counted along it
T17 sequence (VH, as listed by the source limits assumed, chain 1 of 2): as the sequence (VH, as listed by the source, chain 1 of 2) above, with A56G, A62P, V100G, L108V counted along it
T18 sequence (VH, as listed by the source limits assumed, chain 1 of 2): as the sequence (VH, as listed by the source, chain 1 of 2) above, with N55E, A56G, A97G, V100A, R103L, L108V counted along it
T13 sequence (VH, as listed by the source limits assumed, chain 1 of 2): as the sequence (VH, as listed by the source, chain 1 of 2) above, with N55E, A56G, A97G, V100A, R103L, L108V counted along it

B1: ADI-34145 Fab (Fab, V domains shown)
VH: EVQLLESGGGLVQPGGSLRLSCAASGFTFSSYAMSWVRQAPGKGLEWVSTISGSGGSTYYADSVKGRFTISRDNSKNTLYLQMNSLRAEDTAVYYCARLGGRRGSGSSYYYYYGMDVWGQGTTVTVSS
VL: not shown
notes: Fab made by papain digestion of the IgG
Work on B1 yielded a Kd (ADI-26913 IgG [1]) of 3.15 nM, a Kd (ADI-26916 IgG [2]) of 19.4 nM and a Kd (ADI-22523 IgG [3]) of 3.22 nM. The binding result (CTL-19672 IgG) was “no binding”, the Kd (ADI-26920 IgG [4]) was 8.97 nM and the Kd (ADI-26906 IgG [5]) was 3.25 nM. For the same binder, the binding result (CTL-19613 IgG [6]) was “no binding”, the binding result (CTL-19672 anti-CD3 bsIgG) was “no binding” and the Kd (ADI-26920 anti-CD3 bsIgG [7]) was 93.8 nM. The Kd (ADI-26913 anti-CD3 bsIgG [8]) was 159 nM, the Kd (ADI-26906 anti-CD3 bsIgG [9]) was 24.4 nM and the binding result (CTL-19613 anti-CD3 bsIgG [10]) was “no binding”.

B2: ADI-34134 Fab (Fab, V domains shown)
VH: QVQLVQSGAEVKKPGSSVKVSCKASGGTFSSYAISWVRQAPGQGLEWMGGIIPIFGTANYAQKFQGRVTITADESTSTAYMELSSLRSEDTAVYYCARGAPNYYGSGGYDDGWFDPWGQGTLVTVSS
VL: EIVLTQSPGTLSLSPGERATLSCRASQSVSSDYLAWYQQKPGQAPRLLIYGASSRATGIPDRFSGSGSGTDFTLTISRLEPEDFAVYYCQQFGRVPTFGGGTKVEIK
notes: as for B1
Binder B2 has a Kd (ADI-26921 IgG) of 56.5 nM, a Kd (ADI-26913 IgG [11]) of 79.8 nM and a Kd (ADI-26928 IgG) of 185 nM. It also gave a Kd (ADI-26927 IgG) of 38.2 nM, a Kd (ADI-26916 IgG [12]) of 157 nM and a Kd (ADI-22523 IgG [13]) of 5.68 nM. The Kd (ADI-26941 IgG) was 138 nM, the Kd (ADI-26920 IgG [14]) was 31 nM and the Kd (ADI-26906 IgG [15]) was 17.8 nM. The binding result (CTL-19613 IgG [16]) was “no binding”, the Kd (ADI-26920 anti-CD3 bsIgG [17]) was 28.7 nM and the Kd (ADI-26921 anti-CD3 bsIgG) was 37.1 nM. The Kd (ADI-22523 anti-CD3 bsIgG) was 10.9 nM, the Kd (ADI-26913 anti-CD3 bsIgG [18]) was 74.2 nM and the Kd (ADI-26906 anti-CD3 bsIgG [19]) was 27.2 nM. The Kd (ADI-26928 anti-CD3 bsIgG) was 110 nM, the binding result (CTL-19613 anti-CD3 bsIgG [20]) was “no binding” and the Kd (ADI-26927 anti-CD3 bsIgG) was 48.9 nM.
